From article PMC8322138, “BRCA2 binding through a cryptic repeated motif to HSF2BP oligomers does not impact meiotic recombination” (Nature Communications, 2021)
Values joined by “and” are separate entries in the source; they are usually repeats but may differ in a detail not shown here. Equal values may be shown once. Ends that are not written are not given here.

Key:
GFP-HSF2BP = assay: Co-immunoprecipitation of Flag-BRCA2 variants/fragments with GFP-HSF2BP WT; type: cell-based, human; conditions: transient HEK293T, anti-GFP beads, immunoblot
From the text: (§1) Expression constructs for producing point mutation and truncation variants of HS2BP and BRCA2 in human cells were engineered as described before[16] in the PiggyBac vectors by Gibson assembly. For transient expression into HEK293T cells plasmid DNA was transfected using calcium precipitation method or PEI transfection. For stable integration into HeLa cells, PiggyBac expression vectors were co-lipofected together with PiggyBac transposase plasmid (hyPBase[45]) with Lipofectamine 3000 (Thermo Fisher).
(§2) Cells were washed twice in ice-cold PBS and lysed in situ in NETT buffer (100 mM NaCl, 50 mM Tris pH 7.5, 5 mM EDTA pH 8.0, 0.5% Triton-X100) supplemented immediately before use with protease inhibitor cocktail (Roche) and 0.4 mg/ml Pefabloc (Roche) (NETT++); 450 µl NETT++ buffer was used per 145 mm dish ES cells, 1 ml for HeLa and HEK293T. After 5–10 min, cells were scraped off and collected in 1.5 ml microcentrifuge tubes; lysis was continued for additional 20–30 min on ice, then mixtures were centrifuged (15 min, 4 °C, 14,000 × g) and the supernatant (input) was added to washed anti-GFP beads (Chromotek). Beads and lysates were incubated 2–4 h at 4 °C while rotating, washed three times in NETT++ buffer and bound proteins were eluted by boiling in 2x Sample buffer. Immunoblotting was performed following standard procedures with the following antibodies: anti-GFP mAb (Roche, #11814460001), anti-GFP pAb (Abcam #ab290 and Invitrogen #A11122), anti-RAD51[46], anti-BRCA2 mAb Ab1 OP-95 (Millipore #OP95), anti-BRCA2 (Abcam #27976), anti-Flag (M2 antibody, Sigma, F3165 and F1804). For quantitative immunoblotting fluorescently labeled secondary antibodies were used: anti-mouse CF680 (Sigma #SAB460199), anti-rabbit CF770 (Sigma #SAB460215); membranes were scanned using Odyssey CLx imaging system (LI-COR).

[1] = molecular target: T1, armadillo domain of HSF2BP, from aa 122 to aa 334 (ARM) (human, UniProt O75031 122-334); assay: ITC; HSF2BP or ARM in the cell at 10-20 uM, BRCA2 fragment in the syringe at 40-100 uM; 293 K; 25 mM Tris pH 7.5, 250 mM NaCl, 5 mM beta-mercaptoethanol; two replicates; conditions: both partners purified
T1 construct: Free ARM is a dimer (SEC-MALS); four ARM with two F15X in the complex; A selenomethionine-labelled form was used for the deposited crystal structure; also called HSF2BP ARM; H3 (recombinant); source: E. coli BL21 DE3 Rosetta2, purified (HisTrap, TEV cleavage, SEC)
T1 sequence (looked up): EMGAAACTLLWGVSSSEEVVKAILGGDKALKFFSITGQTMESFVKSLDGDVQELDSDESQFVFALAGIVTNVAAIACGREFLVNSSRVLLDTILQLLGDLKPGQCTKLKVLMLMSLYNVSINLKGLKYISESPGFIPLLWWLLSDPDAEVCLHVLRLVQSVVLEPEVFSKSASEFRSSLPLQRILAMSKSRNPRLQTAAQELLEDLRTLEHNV

BRCA2 (Flag-F9) = assay: Co-immunoprecipitation of GFP-HSF2BP variants with Flag-BRCA2 F9; type: cell-based, human; conditions: transient HEK293T / stable HeLa, anti-GFP beads, immunoblot
From the text: as §1, §2

HSF2BP FL = molecular target: T2, HSF2BP FL (Homo sapiens, UniProt O75031); assay: ITC of BRCA2 fragments with full-length HSF2BP; type: binding; conditions: discussion statement, read-out: affinity of BRCA2 for HSF2BP
T2 construct: Human full-length HSF2BP WT and R200T were expressed; 6xHis-TEV (N, cleaved yes); made in house; host or cells: E. coli BL21 DE3 Rosetta2
T2 sequence (O75031 1-334): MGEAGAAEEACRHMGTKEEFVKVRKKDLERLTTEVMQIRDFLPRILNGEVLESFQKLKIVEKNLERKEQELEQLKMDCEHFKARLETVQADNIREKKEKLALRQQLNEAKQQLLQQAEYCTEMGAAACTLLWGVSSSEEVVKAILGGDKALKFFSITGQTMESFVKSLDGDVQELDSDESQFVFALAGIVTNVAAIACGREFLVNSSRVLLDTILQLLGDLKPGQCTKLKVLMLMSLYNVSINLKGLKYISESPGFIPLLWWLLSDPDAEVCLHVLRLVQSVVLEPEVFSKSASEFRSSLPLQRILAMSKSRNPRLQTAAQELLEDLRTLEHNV
From the text: Human full-length HSF2BP WT and R200T were expressed using a pETM11 (6xHis-TEV) expression vector in E. coli BL21 DE3 Rosetta2 cells, and purified as previously reported (Brandsma et al., Cell Rep 2019). The armadillo domain of HSF2BP, from aa 122 to aa 334, which we will further name ARM, was similarly expressed using a pETM11 (6xHis-TEV) expression vector in BL21 DE3 Rosetta2 cells and purified as full-length HSF2BP.
Human BRCA2 fragment F0 was expressed using a pET-22b expression vector as a fusion protein comprising BRCA2 from aa 2213 to aa 2342 (including mutation C2332T to avoid oxidation problems), a TEV site, a GB1 and 6xHis tag, in E. coli BL21 DE3 Star cells. The BRCA2 gene was optimized for expression in bacteria and synthesized by Genscript. In addition, smaller BRCA2 fragments were produced using the same strategy: FNMR and F15X corresponding to aa 2252 to aa 2342 and aa 2291 to aa 2343, respectively. The smallest fragment F15X∆12, from aa 2312 to aa 2342, was synthesized by Genecust.
ITC experiments were performed using a high-precision VP-ITC instrument (GE Healthcare) at 293 K. To characterize the interactions between HSF2BP and BRCA2 fragments (WT, variants), the proteins were dialyzed against 25 mM Tris pH 7.5, 250 mM NaCl, 5 mM β-mercaptoethanol. The HSF2BP (or ARM domain) was in the sample cell at 10–20 μM and was titrated by BRCA2 fragments at 40–100 μM, using 10 μL injections with 210 s intervals between each injection. The first 2 μL injection was ignored in the final data analysis. The integration of the peaks corresponding to each injection. the correction for the baseline and the fit were performed using the Origin 7.0 software provided by the manufacturer, to obtain the stoichiometry (N), dissociation constant (Kd), and enthalpy of complex formation (ΔH) for each interaction. Two replicates were performed for each experiment.

F15: Flag-tagged BRCA2 fragment N2288-T2337 (NLLNEFDRIIENQEKSLKASKSTPDGTIKDRRLFMHHVSLEPITCVPFRT; also: Flag tag, end not given here)
interaction with HSF2BP (co-precipitation) (GFP-HSF2BP): minimal interaction region

B1: Human BRCA2 fragment FNMR (S2252-Q2342) (domain or fragment, UniProt P51587 2252-2342, looked up)
chain: SLFTCPENEEMVLSNSRIGKRRGEPLILVGEPSIKRNLLNEFDRIIENQEKSLKASKSTPDGTIKDRRLFMHHVSLEPITTVPFRTTKERQ
notes: BRCA2, human, residues 2252-2342; produced by the same strategy as F0 (C2332T); C2332T is stated for F0 and 'our construct'; FNMR was made 'using the same strategy'; source: E. coli BL21 DE3 Star, purified (HisTrap, TEV cleavage, SEC); not shown: GB1, C-terminal, cleaved; His6, C-terminal, cleaved
Kd [1]: 7.8 nM and 13 nM
dH [1]: -9.6 kcal/mol and -9.4 kcal/mol
stoichiometry N [1]: 0.47 and 0.51

B2: Human BRCA2 fragment F15X (N2291-Q2342) (domain or fragment, UniProt P51587 2291-2342, looked up)
chain: NEFDRIIENQEKSLKASKSTPDGTIKDRRLFMHHVSLEPITTVPFRTTKERQ
notes: BRCA2, human, residues 2291-2342 (methods: aa 2291 to aa 2343); T2332 in the construct; The methods give aa 2291 to aa 2343, results and legend N2291-Q2342; A selenomethionine-labelled form was used for the deposited crystal structure; also called BRCA2 F15X; BRCA2 peptide; source: E. coli BL21 DE3 Star, purified (HisTrap, TEV cleavage, SEC); not shown: GB1, C-terminal, cleaved; His6, C-terminal, …
Kd [1]: 10 nM and 9.4 nM
dH [1]: -10.2 kcal/mol and -9.2 kcal/mol
stoichiometry N [1]: 0.33 and 0.4

B3: S2309N: Flag-BRCA2-F9 variant (protein)
chain: GKRRGEPLILVGEPSIKRNLLNEFDRIIENQEKSLKASKNTPDGTIKDRRLFMHHVSLEPITCVPFRT
modifications: left off: Flag, end not stated, kept
notes: Flag-BRCA2-F9 variant
interaction with HSF2BP (co-precipitation) (GFP-HSF2BP): either strongly decreased or abolished binding
interaction with HSF2BP (co-precipitation) (GFP-HSF2BP; listed as S2309): did not interact

B4: R2318Q: Flag-BRCA2-F9 variant (protein)
chain: GKRRGEPLILVGEPSIKRNLLNEFDRIIENQEKSLKASKSTPDGTIKDQRLFMHHVSLEPITCVPFRT
modifications: left off: Flag, end not stated, kept
notes: Flag-BRCA2-F9 variant
interaction with HSF2BP (co-precipitation) (GFP-HSF2BP): either strongly decreased or abolished binding
interaction with HSF2BP (co-precipitation) (GFP-HSF2BP; listed as R2318): did not interact

B5: P2329L: Flag-BRCA2-F9 variant (protein)
chain: GKRRGEPLILVGEPSIKRNLLNEFDRIIENQEKSLKASKSTPDGTIKDRRLFMHHVSLELITCVPFRT
modifications: left off: Flag, end not stated, kept
notes: Flag-BRCA2-F9 variant
interaction with HSF2BP (co-precipitation) (GFP-HSF2BP): either strongly decreased or abolished binding
interaction with HSF2BP (co-precipitation) (GFP-HSF2BP; listed as P2329): did not interact

B6: L2304K: Flag-BRCA2-F9 variant (protein)
chain: GKRRGEPLILVGEPSIKRNLLNEFDRIIENQEKSKKASKSTPDGTIKDRRLFMHHVSLEPITCVPFRT
modifications: left off: Flag, end not stated, kept
notes: Flag-BRCA2-F9 variant
interaction with HSF2BP (co-precipitation) (GFP-HSF2BP): either strongly decreased or abolished binding

B7: R200H: GFP-HSF2BP point mutant (protein)
chain: MGEAGAAEEACRHMGTKEEFVKVRKKDLERLTTEVMQIRDFLPRILNGEVLESFQKLKIVEKNLERKEQELEQLKMDCEHFKARLETVQADNIREKKEKLALRQQLNEAKQQLLQQAEYCTEMGAAACTLLWGVSSSEEVVKAILGGDKALKFFSITGQTMESFVKSLDGDVQELDSDESQFVFALAGIVTNVAAIACGHEFLVNSSRVLLDTILQLLGDLKPGQCTKLKVLMLMSLYNVSINLKGLKYISESPGFIPLLWWLLSDPDAEVCLHVLRLVQSVVLEPEVFSKSASEFRSSLPLQRILAMSKSRNPRLQTAAQELLEDLRTLEHNV
modifications: left off: GFP, end not stated, kept
notes: GFP-HSF2BP point mutant
binding to BRCA2 (co-precipitation) (BRCA2 (Flag-F9)): totally abolished binding

B8: R200C: GFP-HSF2BP point mutant (protein)
chain: MGEAGAAEEACRHMGTKEEFVKVRKKDLERLTTEVMQIRDFLPRILNGEVLESFQKLKIVEKNLERKEQELEQLKMDCEHFKARLETVQADNIREKKEKLALRQQLNEAKQQLLQQAEYCTEMGAAACTLLWGVSSSEEVVKAILGGDKALKFFSITGQTMESFVKSLDGDVQELDSDESQFVFALAGIVTNVAAIACGCEFLVNSSRVLLDTILQLLGDLKPGQCTKLKVLMLMSLYNVSINLKGLKYISESPGFIPLLWWLLSDPDAEVCLHVLRLVQSVVLEPEVFSKSASEFRSSLPLQRILAMSKSRNPRLQTAAQELLEDLRTLEHNV
modifications: left off: GFP, end not stated, kept
notes: GFP-HSF2BP point mutant
binding to BRCA2 (co-precipitation) (BRCA2 (Flag-F9)): totally abolished binding

B9: R277E: GFP-HSF2BP point mutant (protein)
chain: MGEAGAAEEACRHMGTKEEFVKVRKKDLERLTTEVMQIRDFLPRILNGEVLESFQKLKIVEKNLERKEQELEQLKMDCEHFKARLETVQADNIREKKEKLALRQQLNEAKQQLLQQAEYCTEMGAAACTLLWGVSSSEEVVKAILGGDKALKFFSITGQTMESFVKSLDGDVQELDSDESQFVFALAGIVTNVAAIACGREFLVNSSRVLLDTILQLLGDLKPGQCTKLKVLMLMSLYNVSINLKGLKYISESPGFIPLLWWLLSDPDAEVCLHVLELVQSVVLEPEVFSKSASEFRSSLPLQRILAMSKSRNPRLQTAAQELLEDLRTLEHNV
modifications: left off: GFP, end not stated, kept
notes: GFP-HSF2BP point mutant
binding to BRCA2 (co-precipitation) (BRCA2 (Flag-F9)): strongly decreased binding

B10: BRCA2: BRCA2 (fragment F0 measured by ITC) (protein)
chain: STYSKDSENYFETEAVEIAKAFMEDDELTDSKLPSHATHSLFTCPENEEMVLSNSRIGKRRGEPLILVGEPSIKRNLLNEFDRIIENQEKSLKASKSTPDGTIKDRRLFMHHVSLEPITTVPFRTTKERQ
Kd (HSF2BP FL): 1 nM
